For two molecules, Kd results are on record in publication PMC5289745 (Biochemistry, 2015).

In this test the target is PcrV (residues 25–294) (P. aeruginosa, UniProt G3XD49 25-294). The test can be described thus: SPR.

B1: PcrG-GB1-His6 (natural protein)
chain: MGDMNEYTEDTLRATVQAAELAIRDSEERGRLLAEMWQGLGLAADAGELLFQAPERELARAAEEELLAELRRMRSSQPTQGEQGTRPRRPTPMRGLLIGSENLYFQ
The term Kd denotes a measure of binding affinity in units of concentration. A low value points to tighter binding. On to B1, for which the affinity, expressed as Kd, was 26 nM.

B2: PcrG^9–76-GB1-His6 (domain or fragment)
chain: MEDTLRATVQAAELAIRDSEERGRLLAEMWQGLGLAADAGELLFQAPERELARAAEEELLAELRRMRSSGSENLYFQ
Molecule B2 registered a Kd of 24 nM.
